Assay results: patent publication US20240083958A1, “G PROTEIN PEPTIDOMIMETICS” (VRIJE UNIVERSITEIT BRUSSEL, priority 2020, published 2024)
Read-outs that look alike come from different tables or passages of the source. Bridge positions count the residues as written; N and C are the ends. Square brackets hold non-standard residues; d marks the D form. Primed or numbered codes have the meaning given here. Azk = residue with azidated side chain, clicked to Pra; Pra′ = residue with alkynyl side chain, clicked to Azk

Experiments:
Assay in all cases: cell-based or functional assay
human β2AR [1] = target: T1, human β2AR (human, UniProt P07550 2-365)
human β2AR [2] = target: T1, human β2AR; remark: listed apart in the source
human β2AR [3] = target: T1, human β2AR; remark: listed apart in the source
human β2AR [4] = target: T1, human β2AR; remark: listed apart in the source
human β2AR [5] = target: T1, human β2AR; remark: listed apart in the source
human β2AR [6] = target: T1, human β2AR; remark: listed apart in the source
human β2AR [7] = target: T1, human β2AR; remark: listed apart in the source
human β2AR [8] = target: T1, human β2AR; remark: listed apart in the source
[9] = target: dopamine 1 receptor (D1R) (UniProt P21728 1-446, limits assumed)
human β2AR [10] = target: T1, human β2AR; remark: listed apart in the source

Chain of dopamine 1 receptor (D1R) (P21728 whole entry): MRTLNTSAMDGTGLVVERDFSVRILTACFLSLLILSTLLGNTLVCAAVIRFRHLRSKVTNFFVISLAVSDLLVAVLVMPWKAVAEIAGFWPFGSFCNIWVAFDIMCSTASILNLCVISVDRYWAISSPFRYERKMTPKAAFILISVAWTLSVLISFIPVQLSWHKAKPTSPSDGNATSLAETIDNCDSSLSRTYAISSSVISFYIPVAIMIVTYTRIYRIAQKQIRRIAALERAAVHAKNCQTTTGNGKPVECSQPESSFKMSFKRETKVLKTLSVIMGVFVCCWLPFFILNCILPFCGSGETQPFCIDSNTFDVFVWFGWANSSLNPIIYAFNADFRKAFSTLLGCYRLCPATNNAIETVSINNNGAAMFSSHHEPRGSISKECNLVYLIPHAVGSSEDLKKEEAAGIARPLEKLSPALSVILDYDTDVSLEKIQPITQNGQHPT

Binder | IC50 (nM) of isoproterenol, [3H]-DHA RLA, peptidomimetic present (human β2AR [1]) | IC50 (nM) of isoproterenol, [3H]-DHA RLA, peptidomimetic present (human β2AR [2]) | Shift (human β2AR [2]) | Shift (averaged) (human β2AR [3]) | IC50 (nM) of isoproterenol, [3H]-DHA RLA, peptidomimetic present (human β2AR [4]) | Shift (human β2AR [4]) | IC50 (nM) of isoproterenol, [3H]-DHA RLA, peptidomimetic present (human β2AR [5]) | IC50 (nM) of isoproterenol, [3H]-DHA RLA, peptidomimetic present (human β2AR [6]) | Shift (human β2AR [6]) | IC50 (nM) of isoproterenol, [3H]-DHA RLA, peptidomimetic present (human β2AR [7]) | Shift (human β2AR [7]) | Fraction HI (%) (human β2AR [8]) | IC50 (nM) of isoproterenol, [3H]-DHA RLA, peptidomimetic present (human β2AR [8]) | Shift (human β2AR [8]) | IC50 (nM) of A-77636, [3H]-SCH23390 RLA, compound 2 at 10 µM [9] | IC50 (nM) of isoproterenol, [3H]-DHA RLA, peptidomimetic present (human β2AR [10]) | Shift (human β2AR [10])
Ac-FN[Pra′]CRD[Azk]IQRMHLRQYELL-OH (triazole 3-7) [compound 12] | 38.9 nM | 37.3 nM | 31 | 27 | 47.3 nM | 20 |  |  |  |  |  |  |  |  |  |  | 
Ac-FNDCRDIIQRMHLRQYELL-OH [compound 2] |  |  |  | 10 |  |  | 118 nM | 97.6 nM | 9 | 79.4 nM | 10 | 21% | 124 nM | 13 | 5.8 nM | 77.1 nM | 13
